# Where a chain is given by its changes, count along the chain named. Numbers in names are those of the source.
# B1: CD80 E35D/M47V/N48K IgV-Fc (Fc fusion, not shown: small tags and cut ends; a dimerising Fc or GST)
# chain: VIHVTKEVKEVATLSCGHNVSVEELAQTRIYWQKDKKMVLTMMSGDVKIWPEYKNRTIFDITNNLSIVILALRPSDEGTYECVVLKYEKDAFKREHLAEVTLSVKAD
# B2: CD80 E35D/M47V/N48K/V68M IgV-Fc (Fc fusion, not shown: small tags and cut ends; a dimerising Fc or GST)
# chain: B1 chain with V68M
# B3: CD80 E35D/M47V/V68M/K89N IgV-Fc (Fc fusion, not shown: small tags and cut ends; a dimerising Fc or GST)
# chain: B1 chain with K48N, V68M, K89N
# B4: CD80 N48K/V68M/K89N IgV-Fc (Fc fusion, not shown: small tags and cut ends; a dimerising Fc or GST)
# chain: B1 chain with D35E, V47M, V68M, K89N
# B5: CD80 V68M/K89N IgV-Fc (Fc fusion, not shown: small tags and cut ends; a dimerising Fc or GST)
# chain: B1 chain with D35E, V47M, K48N, V68M, K89N
# B6: CD80 IgV-Fc S21P/E35D/K37E/D46E/M47I/V68M (Fc fusion, not shown: a dimerising Fc or GST)
# chain: B1 chain with S21P, K37E, D46E, V47I, K48N, V68M
# B7: CD80 IgV-Fc S21P/E35D/K37E/D46E/M47I/V68M/R94L (Fc fusion, not shown: a dimerising Fc or GST)
# chain: B1 chain with S21P, K37E, D46E, V47I, K48N, V68M, R94L
# B8: CD80 IgV-Fc T13R/Q33R/E35D/M38I/M47L/V68M/L85M/R94Q (Fc fusion, not shown: a dimerising Fc or GST)
# chain: B1 chain with T13R, Q33R, M38I, V47L, K48N, V68M, L85M, R94Q
# B9: CD80 IgV-Fc V22D/E24D/E35D/M47V/V68M (Fc fusion, not shown: a dimerising Fc or GST)
# chain: B1 chain with V22D, E24D, K48N, V68M
# B10: variant CD80 IgV-Fc Q33L/E35D/M47V/L85Q (Fc fusion, not shown: a dimerising Fc or GST)
# chain: B1 chain with Q33L, K48N, L85Q
# B11: variant CD80 IgV-Fc A26E/E35D/M43T/M47L/L85Q/R94Q (Fc fusion, not shown: a dimerising Fc or GST)
# chain: B1 chain with A26E, M43T, V47L, K48N, L85Q, R94Q
# B12: variant CD80 IgV-Fc A26E/Q33L/E35D/M47L (Fc fusion, not shown: a dimerising Fc or GST)
# chain: B1 chain with A26E, Q33L, V47L, K48N
# B13: variant CD80 IgV-Fc A26E/Q33L/E35D/M47L/L85Q (Fc fusion, not shown: a dimerising Fc or GST)
# chain: B1 chain with A26E, Q33L, V47L, K48N, L85Q
# B14: variant CD80 IgV-Fc A26E/Q33R/E35D/M47L/L85Q (Fc fusion, not shown: a dimerising Fc or GST)
# chain: B1 chain with A26E, Q33R, V47L, K48N, L85Q
# B15: variant CD80 IgV-Fc A26E/Q33R/E35D/M47L/L85Q/K86E (Fc fusion, not shown: a dimerising Fc or GST)
# chain: B1 chain with A26E, Q33R, V47L, K48N, L85Q, K86E
# notes: Fc fusions are described in general as dimers
# B16: variant CD80 IgV-Fc E7D/E35D/M47I/L97Q (Fc fusion, not shown: a dimerising Fc or GST)
# chain: B1 chain with E7D, V47I, K48N, L97Q
# B17: variant CD80 IgV-Fc E35D/M47I/E77A/L85Q/R94W (Fc fusion, not shown: a dimerising Fc or GST)
# chain: B1 chain with V47I, K48N, E77A, L85Q, R94W
# B18: variant CD80 IgV-Fc E35D/M47L/L85Q (Fc fusion, not shown: a dimerising Fc or GST)
# chain: B1 chain with V47L, K48N, L85Q
# B19: variant CD80 IgV-Fc H18L/V22A/E35D/M47L/N48T/L85Q (Fc fusion, not shown: a dimerising Fc or GST)
# chain: B1 chain with H18L, V22A, V47L, K48T, L85Q
# B20: variant CD80 IgV-Fc H18Y/A26E/Q33L/E35D/M47L/L85Q (Fc fusion, not shown: a dimerising Fc or GST)
# chain: B1 chain with H18Y, A26E, Q33L, V47L, K48N, L85Q
# B21: variant CD80 IgV-Fc H18Y/E35D/M47L (Fc fusion, not shown: a dimerising Fc or GST)
# chain: B1 chain with H18Y, V47L, K48N
# B22: variant CD80 IgV-Fc H18Y/Q33L/E35D/M47I (Fc fusion, not shown: a dimerising Fc or GST)
# chain: B1 chain with H18Y, Q33L, V47I, K48N
# B23: variant CD80 IgV-Fc Q33L/E35D/T41S/M43I (Fc fusion, not shown: a dimerising Fc or GST)
# chain: B1 chain with Q33L, T41S, M43I, V47M, K48N
# B24: variant CD80 IgV-Fc Q33L/E35D/T41S/M47V (Fc fusion, not shown: a dimerising Fc or GST)
# chain: B1 chain with Q33L, T41S, K48N
# B25: CD80 E35D/V68M/K89N IgV-Fc (Fc fusion, not shown: small tags and cut ends; a dimerising Fc or GST)
# chain: B1 chain with V47M, K48N, V68M, K89N
# B26: variant CD80 IgV-Fc (inert) A26P/E35D/M47I/V68M/A71G/D90G (Fc fusion)
# chain: B1 chain with A26P, V47I, K48N, V68M, A71G, D90G
# notes: not shown: inert human IgG1 Fc
# B27: variant CD80 IgV-Fc (inert) H18F/A26P/E35D/M47I/V68M/A71G/D90G (Fc fusion)
# chain: B1 chain with H18F, A26P, V47I, K48N, V68M, A71G, D90G
# notes: as for B26
# B28: variant CD80 IgV-Fc (inert) H18Y/A26P/E35D/M47V/V68M/A71G (Fc fusion)
# chain: B1 chain with H18Y, A26P, K48N, V68M, A71G
# notes: as for B26
# Target: T1, human PD-L1 expressed on CHO cells (human, UniProt Q9NZQ7 19-290)
# T1 construct: whole, on cells; Target on CHO cells stably expressing PD-L1; also called huPD-L1
# Assay: flow cytometry, CHO cells stably expressing PD-L1, Fc fusion at 33.3 nM
# T1 sequence (Q9NZQ7 19-290): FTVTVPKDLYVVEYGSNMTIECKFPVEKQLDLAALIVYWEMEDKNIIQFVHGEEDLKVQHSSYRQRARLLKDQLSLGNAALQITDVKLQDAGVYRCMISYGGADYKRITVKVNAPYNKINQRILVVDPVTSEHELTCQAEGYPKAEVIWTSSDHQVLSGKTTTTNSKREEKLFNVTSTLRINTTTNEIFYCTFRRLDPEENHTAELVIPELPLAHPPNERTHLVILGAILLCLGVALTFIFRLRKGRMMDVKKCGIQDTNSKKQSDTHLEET
row,Binder,MFI at 33.3 nM [MFI]
1,B1,4850
2,B2,23500
3,B3,21800
4,B4,11500
5,B5,538

# Target: T2, human CTLA-4 (human, UniProt P16410 36-223)
# T2 construct: also called huCTLA4
# Assay: flow cytometry, CHO cells stably expressing CTLA4
row,Binder,MFI at 33.3 nM [MFI]
1,B6,20600
2,B7,20100
3,B8,19100
4,B9,16900

# Target: human CD28 (human, UniProt P10747 19-220)
# Assay: flow cytometry, Jurkat cells (CD28)
row,Binder,MFI at 33.3 nM [MFI]
1,B6,540
2,B7,284
3,B8,15.2
4,B9,191

# Target: T3, human PD-L1 (full-length, expressed on CHO cells) (human, UniProt Q9NZQ7 19-290)
# T3 construct: also called huPD-L1; CD274
# Assay: flow cytometry, MFI on CHO/huPD-L1 cells over MFI on Jurkat (CD28) cells, 33.3 nM
# T3 sequence (Q9NZQ7 19-290): as above
row,Binder,Ratio of PDL1:CD28 [ratio]
1,B10,177
2,B11,262
3,B12,225
4,B13,229
5,B14,309
6,B15,276
7,B16,54
8,B17,238
9,B18,51
10,B19,226
11,B20,282
12,B21,9
13,B22,162
14,B23,104
15,B24,153

# Target: T4, human CTLA4 (full-length, expressed on CHO cells) (human, UniProt P16410 36-223)
# T4 construct: also called huCTLA4
# Assay: flow cytometry, CHO cells expressing huCTLA4, PE anti-human Fc
# T4 sequence (P16410 36-223): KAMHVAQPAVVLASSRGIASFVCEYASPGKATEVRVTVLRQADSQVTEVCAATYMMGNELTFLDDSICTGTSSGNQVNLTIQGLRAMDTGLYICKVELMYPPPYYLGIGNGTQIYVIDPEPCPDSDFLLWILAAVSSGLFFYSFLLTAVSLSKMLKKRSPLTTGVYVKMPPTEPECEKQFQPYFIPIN
row,Binder,MFI at 33.3 nM [MFI]
1,B10,75400
2,B11,278000
3,B12,1320
4,B13,1170
5,B14,1280
6,B15,1280
7,B16,271000
8,B17,247000
9,B18,336000
10,B19,374000
11,B20,2090
12,B21,284000
13,B22,5540
14,B23,6390

# Target: T5, human CTLA4 expressed on CHO cells (human, UniProt P16410 36-223)
# T5 construct: whole, on cells; Target on CHO cells stably expressing CTLA4; also called huCTLA4
# Assay: flow cytometry, CHO cells stably expressing CTLA4, Fc fusion at 33.3 nM
# T5 sequence (P16410 36-223): as above
row,Binder,MFI at 33.3 nM [MFI]
1,B1,47400
2,B2,32900
3,B3,29500
4,B25,24800
5,B4,19100
6,B5,2330

# Target: T3, human PD-L1 (full-length, expressed on …)
# Assay: flow cytometry MFI at 33.3 nM relative to WT CD80 ECD-Fc (R&D), CHO/huPD-L1 cells
row,Binder,Fold change to WT [fold]
1,B10,5.97
2,B11,8.57
3,B12,7.67
4,B13,7.89
5,B14,10.3
6,B15,9.56
7,B16,1.84
8,B17,8.12
9,B18,4.18
10,B19,12.3
11,B20,9.64
12,B21,5.56
13,B22,6.02
14,B23,5.66
15,B24,5.52

# Target: T6, human PD-L1 (human, UniProt Q9NZQ7 19-290)
# T6 construct: also called huPD-L1; CD274
# Assay: flow cytometry, CHO cells stably expressing PD-L1
row,Binder,MFI at 33.3 nM [MFI]
1,B8,20400

# Target: T7, CD28 (endogenously expressed on Jurkat/IL2 reporter cells) (human, UniProt P10747 19-220)
# T7 construct: Endogenous CD28 of Jurkat cells; also called human CD28
# Assay: flow cytometry, Jurkat/IL2 reporter cells (endogenous CD28), PE anti-human Fc
row,Binder,MFI at 33.3 nM [MFI]
1,B10,268
2,B11,260
3,B12,271
4,B13,274
5,B14,264
6,B15,275
7,B16,273
8,B17,272
9,B18,646
10,B20,272
11,B21,5070
12,B22,295
13,B24,287

# Target: T8, human CTLA-4 (human, UniProt P16410 36-223)
# T8 construct: whole, on cells; CHO cells stably expressing huCTLA4; also called huCTLA4
# Assay: flow cytometry, CHO cells stably expressing huCTLA-4, 33.3 nM Fc fusion, PE anti-human Fc
row,Binder,MFI at 33.3 nM [MFI]
1,B26,19800
2,B27,23900

# Target: T9, human PD-L1 (human, UniProt Q9NZQ7 19-290)
# T9 construct: whole, on cells; CHO cells stably expressing huPD-L1; also called huPD-L1
# Assay: flow cytometry, CHO cells stably expressing huPD-L1, 33.3 nM Fc fusion, PE anti-human Fc
row,Binder,MFI at 33.3 nM [MFI]
1,B27,32300
2,B28,51500

# Target: T3, human PD-L1 (full-length, expressed on …)
# Assay: flow cytometry, CHO cells expressing huPD-L1, PE anti-human Fc
row,Binder,MFI at 33.3 nM [MFI]
1,B10,47400
2,B11,68100
3,B12,60900
4,B13,62700
5,B14,81500
6,B15,76000
7,B16,14600
8,B17,64500
9,B18,33200
10,B19,98100
11,B20,76600
12,B21,44200
13,B22,47800
14,B23,44900
15,B24,43800

# Target: T4, human CTLA4 (full-length, expressed on …)
# Assay: flow cytometry MFI at 33.3 nM relative to WT CD80 ECD-Fc (R&D), CHO/huCTLA4 cells
row,Binder,Fold change to WT CD80 [fold]
1,B10,0.42
2,B11,1.56
3,B12,0.01
4,B13,0.01
5,B14,0.01
6,B15,0.01
7,B16,1.52
8,B17,1.38
9,B18,1.88
10,B19,2.09
11,B20,0.01
12,B21,1.59
13,B22,0.03
14,B23,0.04

# Target: T10, human CD28 (human, UniProt P10747 19-220)
# T10 construct: whole, on cells; Jurkat/IL2 reporter cells, which endogenously express CD28
# Assay: flow cytometry, Jurkat/IL2 reporter cells (endogenous CD28), 33.3 nM Fc fusion, PE anti-human Fc
row,Binder,MFI at 33.3 nM [MFI]
1,B26,8190
2,B27,4800
3,B28,6910

# Target: T7, CD28 (endogenously expressed on …)
# Assay: flow cytometry MFI at 33.3 nM relative to WT CD80 ECD-Fc (R&D), Jurkat cells
row,Binder,Fold change to WT [fold]
1,B10,0.04
2,B11,0.03
3,B12,0.04
4,B13,0.04
5,B14,0.03
6,B15,0.04
7,B16,0.04
8,B17,0.04
9,B18,0.08
10,B20,0.04
11,B21,0.66
12,B22,0.04
13,B24,0.04

# From patent publication US20210130436A1 (published 2021)
